Assay [1] has as its target T1, Recombinant human CD47 protein (Homo sapiens, UniProt Q08722).
T1 construct: purchased DIMA BIOTECH PME-100008
Briefly: ELISA detection of CD47 antibody. The format is binding. As for the experimental part:
Recombinant human CD47 protein (DIMA BIOTECH, Cat# PME-100008) was diluted with PBS to a concentration of 1 µg/ml, coated onto ELISA plates with 100 µl/well, and incubated overnight at 4 °C. On the following day, the plates were washed with 300 µl/well of PBST for three times. 300 µl/well of blocking solution (PBST containing 1% BSA (W/W)) was added, and the plates were blocked at 37 °C for 2 hours. After the blocking solution was discarded, the plates were washed with PBST for three times. 100 µl/well of antibody (5-fold gradient dilution, 8 dilution points) was added and incubated at 37 °C for 1 hour. The antibody solution was then discarded, and the plates were washed with PBST for three times. Goat anti-Human IgG Fc Highly Cross-Adsorbed Secondary Antibody, HRP (Invitrogen, Cat# A18829, 1:5000 dilution, 100 µl/well) was added and incubated at 37 °C for 0.5 hours, followed by three washes with PBST. 100 µl/well of TMB chromogenic substrate (solarbio, Cat# PR1200) was added and incubated at 37 °C for 5 minutes, after which 50 µl/well of ELISA stop solution (solarbio, Cat# C1058) was added. The OD450 was read using a microplate reader (ELx800 Absorbance Microplate Reader, BioTek). Data analysis and curve fitting were performed using software (GraphPad Prism 8).
(In an ELISA, binding on a coated surface is turned into a signal by an enzyme label.)

A further assay has as its target T2, CHOK1-CD47 cells (Homo sapiens, UniProt Q08722).
T2 construct: expressed in transfected cells; host or cells: CHO-K1 (CHOK1-CD47, puromycin selection)
Kind of assay: FACS binding of CD47 antibodies to CHOK1-CD47 cells. The note with it: Example 4.3. As for the experimental part:
The desired overexpressing cell line, CHOK1-CD47 (cultured in RPMI-1640 (ATCC Modification, Gibco, Cat# A10491-01) + 10% FBS (BI, Cat# 04-001-1A) + 1× P/S + 6 µg/ml Puromycin (Gibco, Cat# a1113803, 10 × 1 ml (10 mg/ml))), was expanded to the logarithmic phase. Cells were digested, collected, and pipetted to create a single-cell suspension, followed by centrifugation and removal of the supernatant. The cells were resuspended in FACS buffer (PBS + 2% FBS) and counted, and the cell density was adjusted to 2×10^6/ml. 100 µl/well of this suspension was added to a 96-well plate (Corning, Cat# 3799). […] After three washes with FACS buffer by centrifugation, the cells were resuspended in 200 µl/well of FACS buffer and analyzed using FACS (BECKMAN COULTER, CytoFLEX). Data were fitted and the results were analyzed using software (GraphPad Prism 8).
The desired overexpressing cell line, CHOK1-CD47 (cultured in RPMI-1640 (ATCC Modification, Gibco, Cat# A10491-01) + 10% FBSThe (BI, Cat# 04-001-1A) + 1× P/S + 6 µg/ml Puromycin (Gibco, Cat# A1113803, 10 × 1 ml (10 mg/ml))), was expanded to the logarithmic phase. […] After three washes with FACS buffer by centrifugation, the cells were resuspended in 200 µl/well of FACS buffer and analyzed using FACS (BECKMAN COULTER, CytoFLEX). Data were fitted and the results were analyzed using software (GraphPad Prism 8).
(In general: A flow cytometer gives signals particle by particle.)

The target in a further assay is human CD47 antigen (Homo sapiens, UniProt Q08722). Briefly: Affinity measurement by SPR (BIAcore T200). The note with it: 25 °C, 1:1 binding model. As for the experimental part: The binding affinity between the antigen and the antibody was measured using a BIAcore T200 instrument. The binding strength between the CD47 antigen and the antibody was determined using a CM5 chip (purchased from Cytiva, Cat# 29149603) via amine coupling. First, the CD47 antigen was immobilized onto the CM5 chip. According to the instructions of the Amine Coupling Kit (purchased from Cytiva, Cat# BR100050), using PBST as the running buffer, NHS and EDC were mixed and injected to activate the chip for approximately 420 seconds. The CD47 antigen was diluted to 10 µg/mL in 10 mM sodium acetate (pH 5.5) and injected to achieve an immobilization level of 141.2 RU. Finally, the remaining activated sites were blocked with 1 M ethanolamine (pH 8.5). Subsequently, the affinity of the antibody for the CD47 antigen was determined using the multi-cycle kinetics method. In each cycle, a single concentration of the antibody protein was injected, and the association and dissociation processes between the antibody and the antigen protein were recorded. Finally, the chip was regenerated with Glycine-HCl (pH 1.5). […] Data were analyzed according to a 1:1 binding model, and the kinetic parameters of antibody-antigen binding, including the association rate constant (Ka), dissociation rate constant (Kd), equilibrium dissociation constant (KD), and maximum binding signal (Rmax), were fitted.
On the technique in general: SPR reads the build-up and loss of mass on a sensor chip optically.

One molecule from patent EP4793287A1, “TUMOR MICROENVIRONMENT SPECIFICALLY ACTIVATED CD47 ANTIBODY” (Affinity (Shanghai) Biopharmaceutical Co., Ltd., priority 2023, dated 2025) can be followed below.

T1 sequence (Q08722 19-323): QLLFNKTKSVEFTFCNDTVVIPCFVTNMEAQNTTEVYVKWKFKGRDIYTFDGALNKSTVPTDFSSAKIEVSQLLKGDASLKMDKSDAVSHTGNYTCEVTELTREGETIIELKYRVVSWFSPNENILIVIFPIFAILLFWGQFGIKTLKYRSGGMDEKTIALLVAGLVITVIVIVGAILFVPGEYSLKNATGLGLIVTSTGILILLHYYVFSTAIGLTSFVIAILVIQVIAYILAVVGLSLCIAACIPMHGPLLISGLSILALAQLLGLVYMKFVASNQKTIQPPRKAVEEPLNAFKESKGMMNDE
human CD47 antigen, sequence (Q08722 19-323): as above
T2 sequence (Q08722 19-323): as above

B1: CD47 TMEAbody: CD47 TMEAbody conjugated with PEG of approximately 20K molecular weight (i.e., PEG20K) (conjugate)
VH: QQQLEESGGGLVKPEGSLTLTCTASGFSFSSGYDMCWVRQAPGRGLEWIACIYTRSSGGTCYASWAKGRFTISKTSSTVDLRMTSLTAADTATYFCAGGRSSYRLNLWGQGALVTVSS
VL: DVVMTQTPSPVEAAVGGTVTIKCQASQSISNELSWYQQKPGQPPKLLIYRASTLESGVSSRFKGSGSGTEFTLTISDLECADAATYYCQSTFYGDYGNAFGGGTEVVVK
For B1, in assay [1], the “binding affinity weaker compared to 70H1” value is reported as “approximately 7 fold”. In assay [1] (legumain (asparaginyl endopeptidase, AEP)), the “recovery of binding affinity” value was “recoverable by legumain”. The “binding to cells lower compared to 70H1” value in the assay with CHOK1-CD47 cells is listed as “approximately 20 fold”. Also, in the assay with human CD47 antigen, the Ka is 24400 M⁻¹ s⁻¹.
